{"source": "patent US20240343803A1", "about": "(SHANDONG SIMCERE BIOPHARMACEUTICAL, published 2024)", "key": {"[1]": {"biological_target": "T1, human PVRIG-his (AcroBiosystems, Cat NO. PVG-H52H4) (human, UniProt Q6DKI7 41-171, limits assumed)", "T1 construct": "treated as the same protein; also called human PVRIG-His protein; Human PVRIG-His, Acro C227P1-9ARF1-T4", "T1 sequence (looked up)": "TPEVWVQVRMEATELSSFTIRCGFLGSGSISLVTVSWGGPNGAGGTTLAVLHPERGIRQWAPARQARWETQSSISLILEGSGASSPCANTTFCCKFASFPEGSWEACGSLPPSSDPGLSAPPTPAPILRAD", "assay": "competition ELISA on coated human PVRIG-his; blocked ligand human PVRL2-mFc", "protocol": "The ELISA plate was pre-coated with 100 μL/well of 0.5 μg/mL human PVRIG-his protein (AcroBiosystems, Cat NO. PVG-H52H4). The tested anti-PVRIG antibodies were diluted from the highest concentration of 16 nM (two-fold concentration). The diluted antibodies were mixed with 18 ng/ml human PVRL2-mFc (AcroBiosystems, Cat NO. CD2-H5257) in equal volume, added into the plate (100 μL/well), and incubated with shaking at room temperature for 2.0 hours. […] A HRP substrate, TMB (Thermo, Cat NO. 34029) was added into wells after washing the plate again for color development. After adding a termination solution to terminate the reaction, the absorbance value was read by a microplate reader (MD i3×). An inhibiting curve was drawn with concentration of antibodies as the abscissa and the corresponding OD value as the ordinate. The IC50 value was calculated by using a Four Parameter Logistic Fit (GraphPadPrism9). The smaller the IC50 value, the stronger the ability of the antibodies inhibits the binding between PVRIG and PVRL2. The positive and negative controls are the same as in Example 8.\nThe methods refer to Example 11. The inhibiting activity of the humanized antibodies was normalized to the corresponding parental antibodies. If the percentage value is higher than 100%, the inhibiting effect of humanized antibodies is better than that of parental antibodies."}, "[2]": {"biological_target": "T1, human PVRIG-his (AcroBiosystems, Cat …)", "assay": "ELISA, coated human PVRIG-his"}, "[3]": {"biological_target": "T2, Fusion protein of extracellular domain of human TIGIT and His-tag (human TIGIT ECD-his) (human)", "T2 chain": "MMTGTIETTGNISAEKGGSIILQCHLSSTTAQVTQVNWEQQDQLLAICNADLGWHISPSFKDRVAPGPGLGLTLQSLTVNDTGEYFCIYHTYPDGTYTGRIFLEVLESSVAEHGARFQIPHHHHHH", "assay": "BIAcore; KD ratio, by the numbers to TIGIT-005-H2L1 of r33"}, "[4]": {"biological_target": "T3, human TIGIT ECD-mFc (fusion protein of extracellular domain of human TIGIT and mouse IgG2a Fc fragment) (human)", "T3 chain": "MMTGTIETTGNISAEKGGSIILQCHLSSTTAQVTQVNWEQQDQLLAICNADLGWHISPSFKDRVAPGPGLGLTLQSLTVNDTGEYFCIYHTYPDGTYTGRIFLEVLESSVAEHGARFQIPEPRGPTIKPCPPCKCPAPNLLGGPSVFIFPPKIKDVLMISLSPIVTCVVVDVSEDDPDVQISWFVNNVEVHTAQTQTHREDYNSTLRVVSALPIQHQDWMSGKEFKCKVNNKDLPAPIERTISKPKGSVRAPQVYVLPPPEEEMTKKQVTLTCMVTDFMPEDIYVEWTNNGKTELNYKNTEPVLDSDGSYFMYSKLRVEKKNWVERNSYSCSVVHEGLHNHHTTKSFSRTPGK", "assay": "competition cell ELISA; blocked: TIGIT ECD-mFc binding to CHO-K1 CD155 cells", "protocol": "After discarding the culture supernatant, the cells were fixed with a cell fixation solution (Beyotime, P0098), 50 μL/well, at room temperature for 1 hour. After washing once with 0.05% Tween 20-PBS on the Microplate Washer, the plate was added with 5% skim milk powder-PBS, 250 μL/well, and incubated at 37° C. for 2-4 hours. The plate was then washed 3 times with 0.05% Tween 20-PBS on the Microplate Washer. The sample were mixed with human TIGIT ECD-mFc (working concentration: 100 ng/mL) and incubated for 0.5 hour. The mixed solution of antigen and antibody was added to the cell plate (50 μL/well). The cells were incubated with the mixture at 37° C. for 1.5-2 hours and then washed with 0.05% Tween 20-PBS for 3 times on the Microplate Washer. […] After washing 3 times with 0.05% Tween 20-PBS on the Microplate Washer, the plate was added with TMB chromogenic solution (KPL, 52-00-03), 50 μL/well, and incubated at 37° C. for 10 minutes. 1M HCL, 50 µL/well, was then added into the plate to terminate the reaction, and the OD450 nm was read by a microplate reader (Biotek, Powerwave HT)."}}, "data": [{"binder": "PVRIG-A105 (VHH, tested as VHH-hinge-CH2-CH3 (human IgG1-Fc); not shown: human IgG1 hinge-CH2-CH3) VHH: EVQLVESGGGLVQAGGSLRLSCAASGRTFDRHTMTWFRQAPGKEREFVATASRIPGDTYYSHSVKGRFTISRDNAKNTVYLQLNNLKPEDTAVYYCAATSAYCSEVDCYEKGSWYDNWGQGIQVTVSS", "values": [{"measurement": "IC50 (read off the curve)", "setting": "[1]", "result": "~0.7", "unit": "nM"}]}, {"binder": "SRF813-hIgG1 (antibody, V domains shown, human IgG1 format by its name) VH: QVQLVQSGAEVKKPGSSVKVSCKASGGTFSSAAISWVRQAPGQGLEWMGNIIPIVGIANYAQKFQGRVTITADESTSTAYMELSSLRSEDTAVYYCARDTGRGYTRHFWFDPWGQGTLVTVSS VL: DIQMTQSPSSLSASVGDRVTITCRASQSISSYLNWYQQKPGKAPKLLIYAASSLQSGVPSRFSGSGSGTDFTLTISSLQPEDFATYYCQQSDILYTFGGGTKVEIK", "values": [{"measurement": "EC50 (read off the curve)", "setting": "[2]", "result": "~0.05", "unit": "nM"}]}, {"binder": "TIGIT-005-H2L1d (antibody, V domains shown, Humanized anti-TIGIT antibody with NG-site mutation in VL) VH: EVQLVQSGAEVKKPGASVKVSCKASGYAFTNYLIEWVRQAPGQRLEWMGVINPGSGGTNYKEKFKGRVTITADKSSSTAYMELSSLRSEDTAVYYCARGEYFFFDYWGQGTTVTVSS VL: DIVMTQSPDSLAVSLGERATINCKASQHVSNAVAWYQHKPGQSPKLLIYSASYRYTGVPDRFSGSGSGTDFTLTISSLQAEDVAVYYCQQHYNTPHTFGGGTKVEIK", "values": [{"measurement": "Fold change vs chimeric antibodies (KD)", "setting": "[3]", "result": 1.21, "unit": "fold"}]}, {"binder": "RG6058-hIgG1 (antibody, V domains shown, human IgG1 format by its name; also called Roche RG6058; control antibody RG6058) VH: EVQLQQSGPGLVKPSQTLSLTCAISGDSVSSNSAAWNWIRQSPSRGLEWLGKTYYRFKWYSDYAVSVKGRITINPDTSKNQFSLQLNSVTPEDTAVFYCTRESTTYDLLAGPFDYWGQGTLVTVSS VL: not shown", "values": [{"measurement": "IC50 (read off the curve)", "setting": "[4]", "result": "~0.6", "unit": "nM"}]}]}
